In publication PMC8694188, “EPSP Synthase-Depleted Cells Are Aromatic Amino Acid Auxotrophs in Mycobacterium smegmatis” (Microbiology Spectrum, 2021):

Substrate: C=C(OP(=O)(O)O)C(=O)O
Experiment: continuous coupled spectrophotometric Pi release assay (MtPNP / MESG)
Format: biochemical, Mycolicibacterium smegmatis
Conditions: apparent constant, PEP varied at fixed-saturating S3P, 100 mM Tris-HCl pH 7.8, 25°C
Text: continuous coupled spectrophotometric Pi release assay (MtPNP / MESG) on MsEPSPS

Protein | Km | kcat | kcat/Km
MsEPSPS (Mycolicibacterium smegmatis MC2 155) (protein, full-length WT aroA in pET-23a(+) (NdeI/HindIII), expressed in E. coli; no tag evident (native stop codon in reverse primer, ion-exchange and hydrophobic purification); apparent mass 46 kDa on SDS-PAGE) MSARADEEQKPHWAAPSTTAPVDATVTVPGSKSLTNRALILAALATSQGTSTISGALRSRDTDLMIEAIRTLGVTVDISAADPTELTVHGSIEPATDATVDCGLAGTVLRFVPPVAALSRSSVTFDGDEQARSRPIAPLLDGLRRLGVRLDGDGLPFTVRGTGTVSGGTVEIDASGSSQFVSGLLLSGAGFENGLTIVHTGVSVPSAPHVAMTVAMLRDAGVEVDDSVANRWQVNPGPVAARSWNIEPDLSNSTPFLAAALVTGGTVRIAGWPTVSIQPADTILELLATVGGSVREADGHLEVTGAHEYGGFEADLHDVGELAPTVAALAALAKEGSTSQLRGIAHLRGHETDRLAALTTEINGLGGDCRETDDGLLITARPLHGGTWRSYADHRMATAGAIVGLRVPGVVVENIETTAKTLPDFPSMWVDMLAGEPGRNQQR | 88 ± 11 µM | 0.553 ± 0.0185 s⁻¹ | 6280 M⁻¹ s⁻¹
MsEPSPS (Mycolicibacterium smegmatis MC2 155; D61W) (protein, full-length WT aroA in pET-23a(+) (NdeI/HindIII), expressed in E. coli; no tag evident (native stop codon in reverse primer, ion-exchange and hydrophobic purification); apparent mass 46 kDa on SDS-PAGE) MSARADEEQKPHWAAPSTTAPVDATVTVPGSKSLTNRALILAALATSQGTSTISGALRSRWTDLMIEAIRTLGVTVDISAADPTELTVHGSIEPATDATVDCGLAGTVLRFVPPVAALSRSSVTFDGDEQARSRPIAPLLDGLRRLGVRLDGDGLPFTVRGTGTVSGGTVEIDASGSSQFVSGLLLSGAGFENGLTIVHTGVSVPSAPHVAMTVAMLRDAGVEVDDSVANRWQVNPGPVAARSWNIEPDLSNSTPFLAAALVTGGTVRIAGWPTVSIQPADTILELLATVGGSVREADGHLEVTGAHEYGGFEADLHDVGELAPTVAALAALAKEGSTSQLRGIAHLRGHETDRLAALTTEINGLGGDCRETDDGLLITARPLHGGTWRSYADHRMATAGAIVGLRVPGVVVENIETTAKTLPDFPSMWVDMLAGEPGRNQQR | 1,014 ± 975 μM | 0.107 ± 0.0608 s⁻¹ | 106 M⁻¹ s⁻¹
MsEPSPS (Mycolicibacterium smegmatis MC2 155; R134A) (protein, full-length WT aroA in pET-23a(+) (NdeI/HindIII), expressed in E. coli; no tag evident (native stop codon in reverse primer, ion-exchange and hydrophobic purification); apparent mass 46 kDa on SDS-PAGE) MSARADEEQKPHWAAPSTTAPVDATVTVPGSKSLTNRALILAALATSQGTSTISGALRSRDTDLMIEAIRTLGVTVDISAADPTELTVHGSIEPATDATVDCGLAGTVLRFVPPVAALSRSSVTFDGDEQARSAPIAPLLDGLRRLGVRLDGDGLPFTVRGTGTVSGGTVEIDASGSSQFVSGLLLSGAGFENGLTIVHTGVSVPSAPHVAMTVAMLRDAGVEVDDSVANRWQVNPGPVAARSWNIEPDLSNSTPFLAAALVTGGTVRIAGWPTVSIQPADTILELLATVGGSVREADGHLEVTGAHEYGGFEADLHDVGELAPTVAALAALAKEGSTSQLRGIAHLRGHETDRLAALTTEINGLGGDCRETDDGLLITARPLHGGTWRSYADHRMATAGAIVGLRVPGVVVENIETTAKTLPDFPSMWVDMLAGEPGRNQQR | 3,676 ± 1,007 μM | 0.184 ± 0.033 s⁻¹ | 50.1 M⁻¹ s⁻¹
MsEPSPS (Mycolicibacterium smegmatis MC2 155; E321N) (protein, full-length WT aroA in pET-23a(+) (NdeI/HindIII), expressed in E. coli; no tag evident (native stop codon in reverse primer, ion-exchange and hydrophobic purification); apparent mass 46 kDa on SDS-PAGE) MSARADEEQKPHWAAPSTTAPVDATVTVPGSKSLTNRALILAALATSQGTSTISGALRSRDTDLMIEAIRTLGVTVDISAADPTELTVHGSIEPATDATVDCGLAGTVLRFVPPVAALSRSSVTFDGDEQARSRPIAPLLDGLRRLGVRLDGDGLPFTVRGTGTVSGGTVEIDASGSSQFVSGLLLSGAGFENGLTIVHTGVSVPSAPHVAMTVAMLRDAGVEVDDSVANRWQVNPGPVAARSWNIEPDLSNSTPFLAAALVTGGTVRIAGWPTVSIQPADTILELLATVGGSVREADGHLEVTGAHEYGGFEADLHDVGNLAPTVAALAALAKEGSTSQLRGIAHLRGHETDRLAALTTEINGLGGDCRETDDGLLITARPLHGGTWRSYADHRMATAGAIVGLRVPGVVVENIETTAKTLPDFPSMWVDMLAGEPGRNQQR | 3,081 ± 808 μM | 0.438 ± 0.0469 s⁻¹ | 142 M⁻¹ s⁻¹
